Data as given in patent publication US20190322765A1 (Hoffmann-La Roche, published 2019).
“And” between values parts separate entries of the source, which are not always exact repeats. Identical values can stand only once.

B1: human IL-2R α-subunit, monomeric, with AcTev cleavage site and Avi His tag (receptor)
chain: ELCDDDPPEIPHATFKAMAYKEGTMLNCECKRGFRRIKSGSLYMLCTGNSSHSSWDNQCQCTSSATRNTTKQVTPQPEEQKERKTTEMQSPMQPVDQASLPGHCREPPPWENEATERIYHFVVGQMVYYQCVQGYRALHRGPAESVCKMTHGKTRWTQPQLICTGVDEQLYFQGGSGLNDIFEAQKIEWHEARAHHHHHH
notes: also called Hu IL-2R α; CD25

Experiments:
[1] = target: T1, human DPPIV on transfected HEK 293 cells (human, UniProt P27487 1-766); assay: FACS on HEK 293-human DPPIV cells, with HEK mock-transfected cells, cells only and sec. antibody as controls; concentration not shown
T1 construct: whole, on cells; also called CD26

[2] = target: T2, human FAP expressed on stably transfected HEK293 cells (human, UniProt Q12884 1-760); assay: FACS on HEK 293-human FAP cells, median fluorescence against concentration
T2 construct: whole, on cells
Description: Briefly, 250 000 cells per well were incubated with the indicated concentration of the immunoconjugates in a round-bottom 96-well plate, incubated for 30 min at 4° C., and washed once with PBS/0.1% BSA.

[3] = target: FAP on GM05389 fibroblasts; assay: FACS on GM05389 fibroblasts, surface-bound construct detected with secondary antibody after the times shown (internalization analysis); concentration not shown
[4] = target: cynomolgus FAP-His (cynomolgus); assay: SPR, FAP-His captured via anti-His, Fab analyte, 1:1 fit, 25°C
Description: The FAP binding activity of the cleaved Fab fragments used in these examples as antigen binding, moieties was determined by surface plasmon resonance (SPR) on a Biacore machine. […] Temperature was 25° C. and HBS-EP was used as buffer. […] Fitting was performed based on a 1:1 binding model, RI=0, Rmax=local (because of capture format).

[5] = target: T3, murine FAP-His (murine, UniProt P97321 27-761); assay: as above
T3 construct: not shown: His tag

[6] = target: T4, human FAP-His (human, UniProt Q12884 27-760); assay: as above
T4 construct: also called Hu FAP; His-tagged human FAP; not shown: His tag

[7] = target: cynomolgus FAP-His (cynomolgus); assay: SPR, FAP-His captured via anti-His, Fab analyte, steady state, 25°C
[8] = target: T4, human FAP-His; assay: as above
[9] = target: T5, human IL-2R βγ heterodimer, subunit-Fc knobs-into-holes fusion (human); assay: SPR, receptor on CM5, IL-2 analyte, 25°C, kinetic
T5 construct: The entries may hold a leader peptide; also called Hu IL-2R βγ; human IL2-R β knob γ hole heterodimer
Description: (§1) Subsequently, affinity for the IL-2R βγ heterodimer and the IL-2R α-subunit were determined by surface plasmon resonance (SPR). Briefly, the ligand—either human IL-2R α-subunit (Fc2) or human IL2-R β knob γ hole heterodimer (Fc3)—was immobilized on a CM5 chip. […] Flow rate was 30 l/min and the following conditions were applied for association: 180s, dissociation: 300 s, and regeneration: 2×30 s 3M MgCl₂ for IL2-R β knob γ hole heterodimer, 10 s 50 mM NaOH for IL-2R α-subunit.

[10] = target: B1; assay: SPR, receptor on CM5, kinetic
[11] = target: T6, Proleukin (Novartis/Chiron), commercially available wild-type IL-2 (UniProt P60568 22-153); assay: SPR, receptor on CM5, IL-2 analyte, 25°C, steady state
Description: as §1

[12] = target: T6, Proleukin (Novartis/Chiron), …; assay: SPR, receptor on CM5, IL-2 analyte, 25°C, kinetic
Description: as §1

[13] = target: T4, human FAP-His; assay: SPR, His-tagged human FAP captured via anti-His, apparent bivalent affinity (avidity), 25°C
Description: Temperature was 25° C. and HBS-EP was used as buffer. Analyte concentration was 50 nM down to 0.05 nM at a flow rate of 50 μl/min (association: 300 s, dissociation: 900 s, regeneration: 60 s, with 10 mM glycine pH 2). Fitting was performed based on a 1:1 binding model, RI=0, Rmax=local (because of capture format).

| Kd [4] | Kd [5] | Kd [6] | Binder | other results |
| --- | --- | --- | --- | --- |
| – | – | – | 4B9 Fab-IL-2 qm-Fab (other, Fab-IL-2-Fab immunoconjugate against FAP with quadruple mutant IL-2) EVQLLESGGGLVQPGGSLRLSCAASGFTFSSYAMSWVRQAPGKGLEWVSAIIGSGASTYYADSVKGRFTISRDNSKNTLYLQMNSLRAEDTAVYYCAKGWFGGFNYWGQGTLVTVSSASTKGPSVFPLAPSSKSTSGGTAALGCLVKDYFPEPVTVSWNSGALTSGVHTFPAVLQSSGLYSLSSVVTVPSSSLGTQTYICNVNHKPSNTKVDKKVEPKSCDSGGGGSGGGGSGGGGAPASSSTKKTQLQLEHLLLDLQMILNGINNYKNPKLTRMLTAKFAMPKKATELKHLQCLEEELKPLEEVLNGAQSKNFHLRPRDLISNINVIVLELKGSETTFMCEYADETATIVEFLNRWITFAQSIISTLTSGGGGSGGGGSGGGGEVQLLESGGGLVQPGGSLRLSCAASGFTFSSYAMSWVRQAPGKGLEWVSAIIGSGASTYYADSVKGRFTISRDNSKNTLYLQMNSLRAEDTAVYYCAKGWFGGFNYWGQGTLVTVSSASTKGPSVFPLAPSSKSTSGGTAALGCLVKDYFPEPVTVSWNSGALTSGVHTFPAVLQSSGLYSLSSVVTVPSSSLGTQTYICNVNHKPSNTKVDKKVEPKSCD light: EIVLTQSPGTLSLSPGERATLSCRASQSVTSSYLAWYQQKPGQAPRLLINVGSRRATGIPDRFSGSGSGTDFTLTISRLEPEDFAVYYCQQGIMLPPTFGQGTKVEIKRTVAAPSVFIFPPSDEQLKSGTASVVCLLNNFYPREAKVQWKVDNALQSGNSQESVTEQDSKDSTYSLSSTLTLSKADYEKHKVYACEVTHQGLSSPVTKSFNRGEC | binding result [1]: no binding; binding result [2]: binds; binding result [3]: binds |
| – | – | – | 14B3 Fab-IL-2 qm-Fab (other, Fab-IL-2-Fab immunoconjugate against FAP with quadruple mutant IL-2) EVQLLESGGGLVQPGGSLRLSCAASGFTFSSYAMSWVRQAPGKGLEWVSAILASGAITYYADSVKGRFTISRDNSKNTLYLQMNSLRAEDTAVYYCAKGWFGGFNYWGQGTLVTVSSASTKGPSVFPLAPSSKSTSGGTAALGCLVKDYFPEPVTVSWNSGALTSGVHTFPAVLQSSGLYSLSSVVTVPSSSLGTQTYICNVNHKPSNTKVDKKVEPKSCDSGGGGSGGGGSGGGGAPASSSTKKTQLQLEHLLLDLQMILNGINNYKNPKLTRMLTAKFAMPKKATELKHLQCLEEELKPLEEVLNGAQSKNFHLRPRDLISNINVIVLELKGSETTFMCEYADETATIVEFLNRWITFAQSIISTLTSGGGGSGGGGSGGGGEVQLLESGGGLVQPGGSLRLSCAASGFTFSSYAMSWVRQAPGKGLEWVSAILASGAITYYADSVKGRFTISRDNSKNTLYLQMNSLRAEDTAVYYCAKGWFGGFNYWGQGTLVTVSSASTKGPSVFPLAPSSKSTSGGTAALGCLVKDYFPEPVTVSWNSGALTSGVHTFPAVLQSSGLYSLSSVVTVPSSSLGTQTYICNVNHKPSNTKVDKKVEPKSCD light: EIVLTQSPGTLSLSPGERATLSCRASQSVTSSYLAWYQQKPGQAPRLLINVGSRRATGIPDRFSGSGSGTDFTLTISRLEPEDFAVYYCQQGIMLPPTFGQGTKVEIKRTVAAPSVFIFPPSDEQLKSGTASVVCLLNNFYPREAKVQWKVDNALQSGNSQESVTEQDSKDSTYSLSSTLTLSKADYEKHKVYACEVTHQGLSSPVTKSFNRGEC | binding result [1]: no binding; EC50 (read off the curve) [2]: ~20 nM; binding result [3]: binds |
| 4.7 nM and 5.3 nM | 8.9 nM and 9.5 nM | 6 nM | 3F2 Fab (Fab, V domains shown) VH: not shown VL: EIVLTQSPGTLSLSPGERATLSCRASQSVTSSYLAWYQQKPGQAPRLLINVGSRRATGIPDRFSGSGSGTDFTLTISRLEPEDFAVYYCQQGIMLPPTFGQGTKVEIKR | – |
| 33 nM and 35 nM | 0.07 nM | 53 nM and 51 nM | 4G8 Fab (Fab, V domains shown) VH: not shown VL: EIVLTQSPGTLSLSPGERATLSCRASQSVSRSYLAWYQQKPGQAPRLLIIGASTRATGIPDRFSGSGSGTDFTLTISRLEPEDFAVYYCQQGQVIPPTFGQGTKVEIKR | Kd [7]: 33 nM and 34 nM; Kd [8]: 48 nM |
| – | 0.13 nM and 0.18 nM | 2.6 nM | 28H1 Fab (Fab, V domains shown, Cleaved Fab fragment) VH: EVQLLESGGGLVQPGGSLRLSCAASGFTFSSHAMSWVRQAPGKGLEWVSAIWASGEQYYADSVKGRFTISRDNSKNTLYLQMNSLRAEDTAVYYCAKGWLGNFDYWGQGTLVTVSS VL: EIVLTQSPGTLSLSPGERATLSCRASQSVSRSYLAWYQQKPGQAPRLLIIGASTRATGIPDRFSGSGSGTDFTLTISRLEPEDFAVYYCQQGQVIPPTFGQGTKVEIKR | – |
| – | – | – | Naked IL-2 qm (quadruple mutant T3A/F42A/Y45A/L72G, His-tagged) (ligand, also called naked IL-2 quadruple mutant; quadruple mutant IL-2) APASSSTKKTQLQLEHLLLDLQMILNGINNYKNPKLTRMLTAKFAMPKKATELKHLQCLEEELKPLEEVLNGAQSKNFHLRPRDLISNINVIVLELKGSETTFMCEYADETATIVEFLNRWITFAQSIISTLTVDHHHHHH | Kd [9]: 2.7 nM and 2 nM; binding result [10]: no binding (tested: 300 nM) |
| – | – | – | B1 | Kd [11]: 19 nM and 17.8 nM; Kd [12]: 7.5 nM and 12.5 nM |
| 0.23 nM and 0.24 nM | 5 nM and 5.2 nM | 0.3 nM and 0.31 nM | 4B9 Fab (Fab, V domains shown) VH: EVQLLESGGGLVQPGGSLRLSCAASGFTFSSYAMSWVRQAPGKGLEWVSAIIGSGASTYYADSVKGRFTISRDNSKNTLYLQMNSLRAEDTAVYYCAKGWFGGFNYWGQGTLVTVSS VL: EIVLTQSPGTLSLSPGERATLSCRASQSVTSSYLAWYQQKPGQAPRLLINVGSRRATGIPDRFSGSGSGTDFTLTISRLEPEDFAVYYCQQGIMLPPTFGQGTKVEIK | – |
| – | – | – | 28H1 IgG (antibody, V domains shown, also called unmodified 28H1 IgG antibody) VH: EVQLLESGGGLVQPGGSLRLSCAASGFTFSSHAMSWVRQAPGKGLEWVSAIWASGEQYYADSVKGRFTISRDNSKNTLYLQMNSLRAEDTAVYYCAKGWLGNFDYWGQGTLVTVSS VL: EIVLTQSPGTLSLSPGERATLSCRASQSVSRSYLAWYQQKPGQAPRLLIIGASTRATGIPDRFSGSGSGTDFTLTISRLEPEDFAVYYCQQGQVIPPTFGQGTKVEIK | Kd [13]: 0.2 nM |
| – | – | – | 4G8 IgG (antibody, V domains shown) VH: not shown VL: EIVLTQSPGTLSLSPGERATLSCRASQSVSRSYLAWYQQKPGQAPRLLIIGASTRATGIPDRFSGSGSGTDFTLTISRLEPEDFAVYYCQQGQVIPPTFGQGTKVEIK | Kd [13]: 0.05 nM |
| 0.59 nM and 0.61 nM | 4.7 nM | 0.47 nM | 14B3 Fab (Fab, V domains shown, Cleaved Fab fragment) VH: EVQLLESGGGLVQPGGSLRLSCAASGFTFSSYAMSWVRQAPGKGLEWVSAILASGAITYYADSVKGRFTISRDNSKNTLYLQMNSLRAEDTAVYYCAKGWFGGFNYWGQGTLVTVSS VL: EIVLTQSPGTLSLSPGERATLSCRASQSVTSSYLAWYQQKPGQAPRLLINVGSRRATGIPDRFSGSGSGTDFTLTISRLEPEDFAVYYCQQGIMLPPTFGQGTKVEIKR | – |
| 0.21 nM and 0.2 nM | 1.3 nM and 1.2 nM | 0.19 nM | 29B11 Fab (Fab, V domains shown, Cleaved Fab fragment) VH: EVQLLESGGGLVQPGGSLRLSCAASGFTFSSYAMSWVRQAPGKGLEWVSAIIGSGGITYYADSVKGRFTISRDNSKNTLYLQMNSLRAEDTAVYYCAKGWFGGFNYWGQGTLVTVSS VL: EIVLTQSPGTLSLSPGERATLSCRASQSVTSSYLAWYQQKPGQAPRLLINVGSRRATGIPDRFSGSGSGTDFTLTISRLEPEDFAVYYCQQGIMLPPTFGQGTKVEIKR | – |
